Measured values from article PMC6085627, “Exploring the biological functional mechanism of the HMGB1/TLR4/MD-2 complex by surface plasmon resonance” (Molecular Medicine, 2018).
Residue numbers refer to the chain shown, from its start.

B1: disulfide HMGB1 (High Mobility Group Box 1) (natural protein, UniProt P63159 1-215, looked up)
chain: MGKGDPKKPRGKMSSYAFFVQTCREEHKKKHPDASVNFSEFSKKCSERWKTMSAKEKGKFEDMAKADKARYEREMKTYIPPKGETKKKFKDPNAPKRPPSAFFLFCSEYRPKIKGEHPGLSIGDVAKKLGEMWNNTAADDKQPYEKKAAKLKEKYEKDIAAYRAKGKPDAAKKGVVKAEKSKKKKEEEDDEEDEEDEEEEEEEEDEDEEEDDDDE
modifications: disulfide bond between C23 and C45
notes: High Mobility Group Box 1 (HMGB1), single 215-amino acid polypeptide; neither is stated here; also called disulfide HMGB1 isoform; intact HMGB1; source: E. coli, purified to homogeneity
B2: DTT reduced HMGB1 (natural protein, UniProt P63159 1-215, looked up)
chain: B1 chain
modifications: cysteines reduced with DTT (no C23-C45 disulfide)
notes: High Mobility Group Box 1 (HMGB1), 215 amino acids, reduced form; Prepared as in Yang et al. 2012 (cited); Same protein as m1 in another redox state; source: E. coli, purified to homogeneity, then reduced with DTT
B3: non-oxidizable HMGB1 3S mutant (natural protein, UniProt P63159 1-215, looked up)
chain: B1 chain with C23S, C45S, C106S
notes: HMGB1 in which all three cysteines (C23, C45, C106) are replaced by serines; Commercial protein; also called 3S mutant HMGB1; source: provided by HMGBiotech (Milan, Italy)

Experiments:
[1] = target: T1, Human TLR4/MD-2 complex (human, UniProt O00206 24-631; Q9Y6Y9 19-160); experiment: SPR; Biacore T200; TLR4/MD-2 amine-coupled on CM5 (~1200 RU); HMGB1 isoforms injected at 30 μL/min for 60 s, 25 °C, dissociation 1 min; HBS-EP pH 7.4 (10 mM hepes, 150 mM NaCl, 3 mM EDTA, 0.05% P20); 1:1 binding supposed; apparent KD; settings: both partners purified
T1 construct: Toll-like receptor 4 (TLR4), human, chain of the bought TLR4/MD-2 complex; Myeloid Differentiation factor 2 (MD-2), human, chain of the bought TLR4/MD-2 complex; No catalogue number printed; also called TLR4/MD-2 receptor; source: bought: R&D Systems

[2] = target: T2, human TLR4 (human, UniProt O00206 24-631); experiment: SPR; Biacore T200; rhTLR4 amine-coupled on CM5 (~800 RU); HMGB1 isoforms injected at 30 μL/min for 60 s, 25 °C, dissociation 1-2 min; HBS-EP pH 7.4; 1:1 binding supposed; apparent KD; settings: both partners purified
T2 construct: Toll-like receptor 4 (TLR4), recombinant human (rhTLR4); No catalogue number printed; also called rhTLR4; Toll-like receptor 4; source: bought: R&D Systems
T2 sequence (O00206 24-631): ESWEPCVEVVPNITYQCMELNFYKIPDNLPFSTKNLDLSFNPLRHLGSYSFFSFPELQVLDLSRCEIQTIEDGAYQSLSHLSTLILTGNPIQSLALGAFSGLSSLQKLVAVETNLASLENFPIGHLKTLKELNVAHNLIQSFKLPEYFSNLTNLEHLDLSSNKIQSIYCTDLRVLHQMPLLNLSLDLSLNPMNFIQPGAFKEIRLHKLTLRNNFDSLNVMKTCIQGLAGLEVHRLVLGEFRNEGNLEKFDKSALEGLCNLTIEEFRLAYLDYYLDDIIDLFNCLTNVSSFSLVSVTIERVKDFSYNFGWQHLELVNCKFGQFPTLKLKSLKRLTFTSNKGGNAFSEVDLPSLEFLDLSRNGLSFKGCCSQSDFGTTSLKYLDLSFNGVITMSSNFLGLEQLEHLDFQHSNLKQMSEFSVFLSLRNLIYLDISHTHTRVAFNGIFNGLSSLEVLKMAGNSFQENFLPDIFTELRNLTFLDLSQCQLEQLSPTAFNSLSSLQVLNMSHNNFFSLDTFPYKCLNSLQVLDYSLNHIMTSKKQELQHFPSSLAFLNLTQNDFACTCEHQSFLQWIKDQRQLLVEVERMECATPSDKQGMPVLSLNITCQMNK

T1 sequence (O00206 24-631, chain 1 of 2): as the sequence (O00206 24-631) above
T1 sequence (Q9Y6Y9 19-160, chain 2 of 2): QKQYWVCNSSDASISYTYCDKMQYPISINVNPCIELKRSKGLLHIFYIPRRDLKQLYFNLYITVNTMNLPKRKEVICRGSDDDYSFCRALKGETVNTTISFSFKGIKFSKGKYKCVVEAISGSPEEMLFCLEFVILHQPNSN

| Binder | Kd [1] [µM] | fold faster association rate than the other isoforms [1] [fold] | kon [1] [M⁻¹ s⁻¹] | Kd [2] [µM] |
| --- | --- | --- | --- | --- |
| B1 | 0.42 ± 0.01 | 10 | 286000 | – |
| B2 | 3.93 ± 0.01 | – | – | – |
| B3 | 3.02 ± 0.02 | – | – | 4.2 ± 0.09 |
